# A protein production outcome set (Wang et al. 2014)
# Assay: label from the status in PepcDB records
row,Sequence,protein production
1,MGTFIEPSKVTLKDYLNHWLEIKSMSIEKSTFAGYKAFINQHVIPSIGMVTLHKLNVIHIQKCYKTAIDKGIANNSILLMHRILKSALNLAVKQNIISRNPADFAEIPLEHHHHHH,failed
2,MGTKERILEVSKELFFEKGYQGTSVEEIVKRANLSKGAFYFHFKSKEELITEIIERTHKKIISLFEENKEKTPEELLEMFLEVLYREKKVVYIFLFDLLCSEKFRNIYFEKIEDAKRRFEKFLEKHFPSKAEILSEIILGFLRQLILHYVIKEERELPFLKEKLREGLKLIFEGVKKCG,not failed
3,MGTTGFTIIDLIILIVYLLAVLVAGIYFSKKEMKGKEFFKGDGSVPWYVTSVSIFATMLSPISFLGLAGSSYAGSWILWFAQLGMVVAIPLTIRFILPIFARIDIDTAYDYLDKRFNSKALRIISALLFIIYQLGRMSIIMYLPSAGLSVLTGIDINILIILMGVVAIVYSYTGGLKSVLWTDFIQGVILISGVVLALFVLIANIKGGFGAVAETLANGKFLAANEKLFDPNLLSNSIFLIVMGSGFTILSSYASSQDLVQRFTTTQNIKKLNKMLFTNGVLSLATATVFYLIGTGLYVFYQVQNADSAASNIPQDQIFMYFIAYQLPVGITGLILAAIYAASQSTISTGLNSVATSWTLDIQDVISKNMSDNRRTKIAQFVSLAVGLFSIGVSIVMAHSDIKSAYEWFNSFMGLVLGLLGGVFILGFVSKKANKQGAYAALIVSTIVMVFIKYFLPPTAVSYWAYSLISISVSVVSGYIVSVLTGNKVSAPKYTTIHDITEIKADSSWEVRH,failed
4,MGTTQLESVPEPKYWHLKTVLSEALDSEFSVGEILPNERDLAARFGVARATLRQALEQLELEGRLQRRRGVGTTVAPPRMGVAVGSEQHTWPGAAGDAWQPVDCTVAAPPPAVAGVLETGRNEQVHTVRRSRVTHGHPVAAELLYIPDFSVPDLSAIDAPSGAARARAVLRELQRLELEGQDRAVELGSARAEDAKELDRLPGAPVLVVTTRFFAEGRAAAVSVATYRADTCRLTFGDSGGVEIHHDPERRAS,failed
5,MGTYVEPSKLSYGEYLESWFNTKRHSVGIQTAKVLKGYLNSRIIPSLGNIKLAKLTSLHMQNYVNSLRDEGLKRGTIEKIIKVIRNSLEHAIDLELITKNVAAKTKLPKADKEELEHHHHHH,failed
6,MGVFLDKSIKDVVDGLNVRYFLPDIQREYVWLKKADEKKIEQLFDSILRGYPIGSFLFWKLQKEDIAKSDEQDSDKLNFQLYQFITNYDVRKPHNEKIRIEQINRDDLYIVANSV,failed
7,MGVFLVLLGGIFWAISGVLAEYLFKNNYSVDWVCFYRLLSTGLILIFLSFKTQKILVFANLKESLSICIFGFFGLLLTQFGYFKAIYYTDAGTATMIQYCAPLIIMLYLCFKNKKFPKLIEIFALILIIFALFLLATKGDIEAVVLNYWGIFWAVIGAFGVAFYSLSAREVILKYGLFWIMGWASLFASFVFLLILQFDKGLIHYAFNLKAFFSMGGIVFIGTIGAFCLYLKGVEYIGALRASMIASIEPVAAALMSFLFLKTRYSLLDIFAFVLIILSVILNAKKTKAS,failed
8,MGVISAYAVVHERAAIIDPGTAKGAEIILDEIDRSWNVEYICPTHIHIDHGGGAARLAKALDAKIIVHPRGVKHVVNPEKLWEASKAVLGEVAEIYGKPESIDESKVIAVEDEQEFDLGGERLKVFHAPGHAPHMLVYYLTNSKVLFPADAVGMCFGGVVFPLTPPPFDADAALKTLKRLKGLKVDYVAFTHYGVVELEHHHHHH,failed
9,MGVKRKKMGKVAGFTEWTAEDLEAFRARWPIGTAQRLALELYQWTGARCVDVIRLGPQMVGRDGVLTYVQQKTGNPAHVPWTCPAFGLEEQRADLMRCLPVGSPVYMLTEYGKPRTQKGVSQWFSAAAREAGLESRTAHGLRKYRMNALAEHGASVLVMQSWVGHTTLLEVQEYTRLEHHHHHH,not failed
10,MGVNETGYVLIYGGSSWVSQPQALETIYPAENWQEIIQDFRQKQPDLPVVVIQGPDDEQFVRSLRDYSLDIKVTSPDNVGKLTAMIAGANLMLTTDSAPLHLSVAVQTYTIALFGSTDPVKLLPNSDKLLGIKSSTGRVADILPKAVLEKVWGGLEHHHHHH,failed
11,MGVRLVLRLVPRLVTRFTPLGLGMVALGCALVASFYSPPSFASIWDLLTNKRGVSQASVSKDSPRIELVGTLPADTELELIGFYYSSICTEKEMYFPSGDIANPQWRTKGTTSQLRQVVTSLHNASHFTQSVALQGGGACEWQLTNIQLNMSLLPSHRLWQEAQSLKKQYLAELPVAKVKDEALEKDAFKQSFDLIPTAKEADAASADSNDATITFSPIYYPIYSYAPEDKQPFDVGLKSSLQREVSDRWSLQHSRRIRLADERVTRVNFTPQIAEDYAVNIHILDRKSKVSYPDGTEFTYIKAGLRLYPYGSAESRFNSLQRSARLEDKRQLAKIYDSGIEHVFEGDKAKAEVLYRELGEAGDMESINWLRERARWGYIKDGQYWLARAAKLGDIQAQLELINQPLSVIPQGKVNTGQAKIREQQAWQTLTELTKQGIPQAVSTMAYYQVFSCSPYFNTTAALDNYRKSVKAQPDLARDAAETYYYFKEDLAQAREFFEIAAEREIDVAAEYAGILLAAEQRDPKRARYWLEKVVTAGDKQYIQQDVLGYAYFRLASLLDAGEGGDADPKRAITLYQQSIELGEGFSNDYQAKAKERLQSLQERHL,failed
12,MGVVFAFGFYLIFIKLTGLKLMDYFPRFKENRLKMIFSILSVILAFLINWLIMKNFSFLIEIIHPIASVWIFIILIYLLLRFLFLKRVPLSNYEKKFMGNMSAIAIFLELLKIIEYVDEHNIASPITVALVFFIPVVVFFNCKYFYEMELSS,failed
13,MGWKMQATVTEIGKHAIDDSEKMIILFGETATDTLKQHAVIQSFPEKDQVTLAEGDHLKIGDTNYTITKVGSFANSNLQSIAHSTLIFADAPTDEDDVIRNGVYLTPHQLPKITIGTTIDYLVNGA,not failed
14,MGWVRTKALTMEQPSAPSLTRWLFAGVLMAIIGVLLFILHASGTVKIISVINIWWVSLMPAGCWLLIFCLRCYLWDRDLKAHQFLLKEAEYGQQRWEDWAGRWLAVLSSAVLLPDHISAAHWGSERPQQYGLARRINYLPVEEPVQLSAMHALLTSIEERVQCLPEELPLYVTLITDNPSPELTSSFSNLWKEHIPGRAVPDDITVTGSFSLSEVEERLKQPVLTVNLLLVIQLNGGTAYSDGLAVLLLTSDDVAQKYHLPHSSRLLRPMPLDMTNFEDDITLFLETQTVACQTPSVIGDAKKWTERSAALITQGGKMHTPWKAEDIALLEKWCGIPGPAAPWLLTALAADLVSLRKQPLLALFSSEQEHFISTITPGSEDDYTG,failed
15,MGYLIGGDIISSSPFTKIFYGSCRKIAVFIFSVLSLTIISGILMYFIEGETGGFTSPSLSIYWAIATLLTVGYGDVVLQTSVGRAMASFVSVLGLSIIVVPIFIVIAEIFGLLSRTFSW,failed
16,MHDIILMPCPEVSIIILTRNGKATIGECLKQVYAQNYTNFEVIVIDSASTDGTPDIVNNFPVRFFSIDVKDFGHGKTRNYGAKLSKGKYLAYLTQDASPFNEHWLENLIRNFSDEEVAGVYSRNVPRSDCDPFEARYISSGWGSDREVKSMQNCRNYKKLVFFSNTSSCIRKDTWEKFPFNELLVQTEDQDWSKRVLEAGYKIVYDPGSVVVHSHNNSLKILFKKYFDAGTAHIQIFKNRNNVYLPLIPFFSVISTFLDIRFMFFNNYETINIIKWVPRAVVRHFVEATAFWLGLHFDILPQALKRKFTASGHY,failed
17,MHFKKSLVRSLITLAITATASTTVLANEVSGDISKFKSVGNEVNTKQKATGYIVQLKGKTAIAQAQEIGELLPTNQLVANTGNRYNAHTPAMEAYTKALENKQKQVASSIDSINILHSFKHTYNGFTAKLNAKQKAQLESHPDVIGVYEDKLETVNTANTPEFLGLTGAGGQHAMNIKGEGVIIGVIDTGVWPENPSFADDGSYSDPADLGWLGSCDTGTDEEFACNNKLIGAKYFDSSFSSQYDIQYDLGEFDSPRDADGHGSHTASTAGGNESVAAMLSGTPVGTVSGMAPRARIAAYKVCWNSDYKNPEGGDEAGCFGGDTMAAIDAAVTDGVDVINYSIGGSRTDLTVPATAAMLNATAAGVFVAVSAGNDGPDKETVGTPAPWVTSVAASTYNGTSAIVGKALDITSGTLAGSSILSVPSGFSPATVGLSGELALAEPVQACNDAPLTNGEDLAGKIALIARGSCAFTEKFLNAQNAGAVGAIIYTTEGTSPFSMGGTDPAVTITGSMISFADGQSLTASIEDGSTSVAFTDNTAAGEAVEVGNTMADFSSRGPNLNTYDIIKPDITAPGVKILAATTSAPMFGTQGETFKYLQGTSMSSPHIAGLAALFKESNSSWSPAQIKSAMMTTARQNLTKEDGTTQADPYDFGSGHVAPVSALDPGLLFDTNLADYLAFLCGQDKEAFVSGYDTSCADLATAGFSTDASQLNLASIAIAELLEPETIFRTVSNATPIASSYTATVEAPAGFDISVQTFDAAGEETEASTLDVAAEGGKASFAITVSQTETTEIEAWKFGAITWTDGAGHSVRLPLAIKAIPSVQIEVPELISGDLNRGRFRFPVKMLYSGRTSIKHAGLVAPFGTAGTVEADPAQEFEFLGAGTNYHLFHIPEGTQVARFSLSDALVTEEGSDLDLYVYRCDKWSCAQVANSLNGGSNEDVVLTNPEPRADVDVGDVYVTMIHGYSTGAATETDYTMVGWIADQAERTTRVISSRRAINGRFNYTSILTRGLPTGTTYMGAVTYFNAEGEAEGTTVLELKN,failed
18,MHFNLPTYLTLLRIVLIPVLTVAFYLPWSGAHVVSGVIFAIAAITDWLDGYLARRMGLATRFGAFLDPVADKLMVAVALVLIVQAEPRPLIALASAIIIGREITIASLREWMAEIGQRKRVEVSALGKWKTTFQMLAITLLLLGLDIPHGGVKTTGELLLVVSATLTLWSMIVYLQAAMPVFKAGAEAE,not failed
19,MHGPPESQEPCGTFGPDETTGATSTAASRGEARRLPRGGVLWALVDCNNFYASCERLFRPDLKGRPVVVLSNNDGCVIARSAEAKALGVPMGAPEFKVRDMLRAHDVAVFSSNYALYGDLSQRVMRTLATVVPRVEVYSIDEAFIPLPAALAADPVAVGRTLRQRVAQWVGIPVSVGVGPTRTLAKLANRLSKQDSAYGNVFDLTPETVDMDRVLASVDVGDVWGVGRRSAEMLRGRGILTARALRDADPLWVRQRMTVTGWRTQQELRGMPCLTDDDLPVPRRSIRSSRSFGQMVRTLEPLREAVATFTARAVAKARAEGLVASCIEVHIRTPRHTERPRYDETTTITLPCPTADTGLCIRHALTGLERIFREGYLYAKAGVTLFGLEPAAGRQGSLLDLLDGSHEHKARRERLMAALDAVNLRHGRGSIRHGAEGDPGAAWHMSQKYRSPRYTTAWEELPEVLCR,failed
20,MHHYRVSGWTLATEIPLPHLFPCSAPAGEAAADITLRQGPVPPPPVPLRLDRDGIQVGADGHTVIDIPNCVRIGLTGGRDIMVDPAPGASWPEIQTWLLGPGLGVICHQRGVLPLHACAIRTGKGGLAIVGNSGAGKSTTATALVQRGHRLLGDDVLVVDPDTGLAQPCFPMVKLWDSSRSALDIGQEGQQSVGGKIGKWHMPMLAAFDPVPRPLSAIVHLRADPAARRPVLTRWPRPHAAAVLDAMTYRVYLADALHGRRHVLSAATRLAAHVPVWELVRTADFADLAEMLDMLEGLAGALEHHHHHH,failed
21,MHIHILGICGTFMGSLALLARALGHTVTGSDANIYPPMSTQLEQAGVTIEEGYLIAHLQPAPDLVVVGNAMKRGMDVIEYMLDTGLRYTSGPQFLSEQVLQSRHVIAVAGTHGKTTTTTMLAWILHYAGIDAGFLIGGVPLVNTTDTNLQQVFAHSSYLGTEKDDSDNSVNTGYFVIEADEYDSAFFDKRSKFVHYRPRTAILNNLEFDHADIFADLDAIQTQFHHMVRMIPSTGKIIMPAATISLEDTLAKGVWTPIWRTSVIDSTISSVRREDSPLENSQAENSSDWQAELISADGSQFTVSFNDNKEATALVNWSMSGLHNVNNALVAIAAAYNIGVSVKTACAALSAFAGIKRRMELIGDVNDILVFDDFAHHPTAITTTLDGAKKKLADRRLWAIIEPRSNTMKMGIHQDSLAQSATLADHTLWYEPTGLEWGLKEVIDNATIANPSIGSQQVLSSVDDIIKHICTHAKAGDAIVIMSNGGFEGIHQRLLTALGNIVAIL,not failed
